Data reported in US20260234242A1 (HAINAN SIMCERE ZAIMING PHARMACEUTICAL, published 2026).

T1: human CDH6 with EC1 removed, on HEK293T cells (HEK293T-hCDH6-EC1 deletion) (human, UniProt P55285 160-790)
T1 construct: Signal peptide not removed here
T1 sequence: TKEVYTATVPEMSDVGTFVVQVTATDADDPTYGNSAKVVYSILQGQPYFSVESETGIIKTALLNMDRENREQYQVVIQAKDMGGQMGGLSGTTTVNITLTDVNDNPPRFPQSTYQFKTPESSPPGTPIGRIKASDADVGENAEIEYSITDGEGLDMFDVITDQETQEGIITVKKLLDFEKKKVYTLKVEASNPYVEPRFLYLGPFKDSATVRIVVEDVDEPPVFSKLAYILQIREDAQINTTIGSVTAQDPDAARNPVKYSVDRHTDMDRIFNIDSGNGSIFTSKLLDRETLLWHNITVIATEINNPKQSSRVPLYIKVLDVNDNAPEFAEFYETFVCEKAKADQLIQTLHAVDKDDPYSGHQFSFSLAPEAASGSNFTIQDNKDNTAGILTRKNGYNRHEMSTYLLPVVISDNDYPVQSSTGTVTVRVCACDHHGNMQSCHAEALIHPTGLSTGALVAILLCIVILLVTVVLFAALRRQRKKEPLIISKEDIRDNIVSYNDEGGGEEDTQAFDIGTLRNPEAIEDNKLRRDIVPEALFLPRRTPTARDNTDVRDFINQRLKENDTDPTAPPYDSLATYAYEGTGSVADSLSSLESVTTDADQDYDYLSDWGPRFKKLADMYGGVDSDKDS

T2: human CDH6 with EC3 removed, on HEK293T cells (HEK293T-hCDH6-EC3 deletion) (human, UniProt P55285 54-790)
T2 construct: Signal peptide not removed here
T2 sequence: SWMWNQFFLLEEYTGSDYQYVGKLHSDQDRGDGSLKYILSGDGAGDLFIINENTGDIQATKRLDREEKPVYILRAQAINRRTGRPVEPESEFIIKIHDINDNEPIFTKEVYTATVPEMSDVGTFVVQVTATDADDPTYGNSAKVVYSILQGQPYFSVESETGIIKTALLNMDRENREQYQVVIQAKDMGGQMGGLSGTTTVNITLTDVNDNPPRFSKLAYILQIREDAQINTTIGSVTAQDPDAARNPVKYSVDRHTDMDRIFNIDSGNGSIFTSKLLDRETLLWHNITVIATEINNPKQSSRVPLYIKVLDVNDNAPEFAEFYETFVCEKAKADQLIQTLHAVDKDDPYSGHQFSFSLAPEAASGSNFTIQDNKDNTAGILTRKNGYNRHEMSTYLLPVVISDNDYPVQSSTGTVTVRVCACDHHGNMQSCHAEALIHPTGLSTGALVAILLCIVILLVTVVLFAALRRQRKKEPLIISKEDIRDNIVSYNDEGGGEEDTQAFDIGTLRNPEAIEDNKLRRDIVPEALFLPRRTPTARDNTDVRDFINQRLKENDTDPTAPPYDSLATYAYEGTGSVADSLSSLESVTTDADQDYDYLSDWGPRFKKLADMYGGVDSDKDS

T3: human CDH6 with EC4 removed, on HEK293T cells (HEK293T-hCDH6-EC4 deletion) (human, UniProt P55285 54-790)
T3 construct: Signal peptide not removed here
T3 sequence: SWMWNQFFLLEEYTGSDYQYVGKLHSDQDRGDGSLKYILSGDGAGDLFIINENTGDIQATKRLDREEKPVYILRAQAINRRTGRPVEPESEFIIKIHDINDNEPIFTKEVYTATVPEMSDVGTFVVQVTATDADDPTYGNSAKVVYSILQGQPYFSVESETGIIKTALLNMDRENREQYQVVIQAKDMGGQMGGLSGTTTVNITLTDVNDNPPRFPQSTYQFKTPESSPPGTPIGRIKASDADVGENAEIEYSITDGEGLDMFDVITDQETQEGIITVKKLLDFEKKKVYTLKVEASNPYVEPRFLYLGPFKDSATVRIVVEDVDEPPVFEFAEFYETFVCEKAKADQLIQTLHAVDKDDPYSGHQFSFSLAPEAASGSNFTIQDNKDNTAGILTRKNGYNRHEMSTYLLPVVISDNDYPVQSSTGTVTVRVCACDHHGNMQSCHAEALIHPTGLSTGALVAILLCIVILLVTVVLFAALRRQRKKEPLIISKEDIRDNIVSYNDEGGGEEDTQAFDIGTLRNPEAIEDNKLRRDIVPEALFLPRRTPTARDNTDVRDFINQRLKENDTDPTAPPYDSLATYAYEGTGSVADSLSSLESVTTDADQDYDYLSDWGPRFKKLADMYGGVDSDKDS

T4: human CDH6 with EC5 removed, on HEK293T cells (HEK293T-hCDH6-EC5 deletion) (human, UniProt P55285 54-790)
T4 construct: Signal peptide not removed here
T4 sequence: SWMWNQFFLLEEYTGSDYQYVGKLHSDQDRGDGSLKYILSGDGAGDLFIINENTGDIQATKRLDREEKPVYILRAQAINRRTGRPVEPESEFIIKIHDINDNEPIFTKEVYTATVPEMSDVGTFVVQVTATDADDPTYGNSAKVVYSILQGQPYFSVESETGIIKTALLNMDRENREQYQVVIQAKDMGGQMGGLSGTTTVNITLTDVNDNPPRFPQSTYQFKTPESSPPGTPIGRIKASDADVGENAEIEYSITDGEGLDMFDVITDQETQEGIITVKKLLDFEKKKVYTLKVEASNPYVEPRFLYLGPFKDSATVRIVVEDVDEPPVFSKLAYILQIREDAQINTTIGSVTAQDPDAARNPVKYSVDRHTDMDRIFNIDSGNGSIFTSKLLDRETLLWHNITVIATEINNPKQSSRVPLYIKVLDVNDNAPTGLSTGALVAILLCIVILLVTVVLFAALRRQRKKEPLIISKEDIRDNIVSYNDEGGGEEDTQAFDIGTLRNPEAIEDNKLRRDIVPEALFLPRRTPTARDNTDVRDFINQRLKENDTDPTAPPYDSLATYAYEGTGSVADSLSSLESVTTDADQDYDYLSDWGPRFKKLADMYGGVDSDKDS

B1: DS-H01L02 (antibody, human IgG1, kappa, V domains shown)
VH: EVQLVQSGAEVKKPGASVKVSCKASGYTFTRNFMHWVRQAPGQGLEWMGWIYPGDGETEYAQKFQGRVTITADTSTSTAYMELSSLRSEDTAVYYCARGVYGGFAGGYFDFWGQGTLVTVSS
VL: DIQMTQSPSSLSASVGDRVTITCKASQNIYKNLAWYQQKPGKAPKLLIYDANTLQTGVPSRFSGSGSGSDFTLTISSLQPEDFATYFCQQYYSGWAFGQGTKVEIKR
notes: Positive control, variable regions from WO2018212136A1; also called positive control anti-human CDH6 antibody
B2: CHI-CDH6-1 (antibody, human IgG1, kappa, V domains shown)
VH: QVQLQQPGAELVRPGSSVKLSCKASGYTFTNYWMHWVKQRPIEGLEWIGDIDPSHSETHYTQKFKDKATLTVDKSSSTAYMQLSSLTSEDSAVYYCARGDLGRFDYWGQGTTLTVSS
VL: DIVLTQSPASLAVSLGQRATISCRASESVSIHGTHLMHWYQQKSGQPPKLLIYAASNLESGVPARFSGSGSETDFTFNIHPVEEEDAATYFCQQSFEDPWTFGGGTKLEIKR
notes: also called CHI-hCDH6-1; CH1-CDH6-1
B3: CHI-CDH6-5 (antibody, human IgG1, kappa, V domains shown)
VH: QVQLQQSGAELVRPGTSVKMSCKAAEYTFTNYWIGWVKQRPGHGLEWIGDLYPGGDHANYNEKFEGKATLTADTSSSTAYMQLSSLTSEDSAIYYCARGMLTTGFDSWGQGTTLTVSS
VL: DIVMSQSPSSLAVSAGEKVTMSCKSSQSLFNSRTRKNYLAWYQQKPGQSPKLLIYWASTRESGVPDRFTGSGSGTDFTLTISSVQAEDLAVYYCKQSYYLRTFGGGTKLEIKR
notes: also called CH1-CDH6-5; chimeric antibody of murine CDH6-5
B4: CHI-CDH6-14 (antibody, human IgG1, kappa, V domains shown)
VH: QIQLQQSGPELVKPGTSVKISCKASGYTFTDNYINWVRQRPGQGLEWIGWIYPGTGNSYYNEKFKGKATLTVDTSSSTAYMQFSSLTSEDSAVYLCASSYGDSFDYWGQGTTLTVSS
VL: DIQMTQTTSSLSASLGNRVTISCRASQDIRNYLNWYQQKPDGTFKLLISYTSRLHSGVPSRFSGSGSGTDYSLTVSNLEPEDIATYYCQQYSQLPWTFGGGSRLEIKR
notes: also called CHI-hCDH6-14; CH1-CDH6-14
B5: CHI-CDH6-7 (antibody, human IgG1, kappa, V domains shown)
VH: EVKLVESGGGLVKPGGSLKVSCAASGFTFSDHGMAWVRQAPGKGPEWVAFISNLAYSIYYADTVTGRFTISRENAKNTLYLEMSSLRSEDTAMYYCARVYVKWYFDVWGAGTTVTVSS
VL: DIQMTQSPASLSASVGETVTITCRASENIDSYLAWYQQKQGKSPQLLVFAATLLADGVPSRFSGSGSGTQYSLKINSLQSEDVARYYCQHYYSTPLTFGAGTKLELKR
notes: also called CH1-CDH6-7; chimeric antibody of murine CDH6-7
B6: CHI-CDH6-12 (antibody, human IgG1, kappa, V domains shown)
VH: EVNLVESGGGLVQPGDSLTLSCSASGFTFTDYYMSWVRQFPGKALEWLALIRNKANSYTTEYSASVKGRFTISRDNSQSILYLQMNALRAEDSATYYCARDSYYSHDGFAYWGQGTLVTVSA
VL: DIVLTQSPASLAVSLGQRATISCRASKSVSTSSYTYMHWYQQKPGQPPKLLIKFASYLESGVPARFSGSGSGTDFTLNIHPVEEEDAATYYCQHSREFPFTFGTGTKLEIKR
notes: also called CH1-CDH6-12; chimeric antibody of murine CDH6-12
B7: CHI-CDH6-4 (antibody, human IgG1, kappa, V domains shown)
VH: QVQLQQSGPELVKPGASVKISCKASGYAFSNFWMNWVKQRPGKGLEWIGWIYPGDGDTNYNGKFKDKATLTADKSSSTAYIQLSSLTSEDSAVYFCARLYDAWGFFDYWGQGTTLTVSS
VL: QIVLTQSPAIMSASPGQKVTITCSASSSVNYMHWYQQKLGSSPKLWIYDKSKLAPGVPARFSGSGSGTSYSLTISSMEAEDAASYFCHQWSSYPPMTFGGGTKLEIKR
notes: also called CH1-CDH6-4; chimeric antibody of murine CDH6-4
B8: CHI-CDH6-3 (antibody, human IgG1, kappa, V domains shown)
VH: QVQLQQPGAELVKPGASVKLSCKASGYTFTSYWIHWVKQRPGQGLEWIGEINPSNGVTNCNENFKSKATLTVDKSSSTAYMQLSSLTSEDSAVYYCTIPNLLWWYFDVWGAGTTVTVSS
VL: DIQMTQSPASLSVSVGETVTITCRASENIYSNLAWYQQKQGKSPQLLVYEATNLADGVPSRFSGSGSGTQYSLKINSLQSEDFGSYYCQHFWGTLWTFGGGTKLEIKR
notes: also called CH1-CDH6-3; chimeric antibody of murine CDH6-3
B9: NOV0712 (antibody, human IgG1, kappa, V domains shown)
VH: QVQLLESGGGLVQPGGSLRLSCAASGFTFSSHGMHWVRQAPGKGLEWVSVISGSGSNTGYADSVKGRFTISRDNSKNTLYLQMNSLRAEDTAVYYCARQWGSYAFDSWGQGTLVTVSS
VL: DIQMTQSPSSLSASVGDRVTITCRASQSISSYLNWYQQKPGKAPKLLIYAVSTLQSGVPSRFSGSGSGTDFTLTISSLQPEDFATYYCQQSGTFPPTTFGQGTKVEIKR
notes: as for B1

Molecular target: T1, human CDH6 with EC1 removed, on HEK293T …
Test: FACS, HEK293T-hCDH6-EC1 deletion cells

Binder | Max MFI [MFI]
B1 | 5290
B2 | 84
B3 | 112
B4 | 7210
B5 | 88
B6 | 9860
B7 | 10200
B8 | 11100
B9 | 23600

Molecular target: T2, human CDH6 with EC3 removed, on HEK293T …
Test: FACS, HEK293T-hCDH6-EC3 deletion cells
Text: (§1) To confirm the binding epitope of the CDH6 antibody, the sequences after removal of these 5 regions were constructed into pcDNA3.1 vectors (purchased from Youbio, Cat. No. VT1001), and transfected into HEK293T cells (purchased from Cell Bank of Chinese Academy of Sciences, Cat. No. SCSP-502) to obtain 5 CDH6 truncated cell lines: HEK293T-hCDH6-EC1 deletion, HEK293T-hCDH6-EC2 deletion, HEK293T-hCDH6-EC3 deletion, HEK293T-hCDH6-EC4 deletion, and HEK293T-hCDH6-EC5 deletion.
(§2) The binding activity of the CDH6 chimeric antibodies to these 5 cell lines was assayed by FACS.

Binder | binding result | Max MFI [MFI]
B1 | no binding (tested: MFI ~1.5 times that of hIgG1 (65)) | 
B2 |  | 18000
B3 |  | 12200
B4 |  | 755
B5 |  | 9060
B6 |  | 70
B7 |  | 15100
B8 |  | 689
B9 |  | 16300

Molecular target: T3, human CDH6 with EC4 removed, on HEK293T …
Test: FACS, HEK293T-hCDH6-EC4 deletion cells
Text: as §1, §2

Binder | Max MFI [MFI]
B1 | 11800
B2 | 30000
B3 | 18700
B4 | 26600
B5 | 17400
B6 | 16600
B7 | 22200
B8 | 16800
B9 | 20600

Molecular target: T4, human CDH6 with EC5 removed, on HEK293T …
Test: FACS, HEK293T-hCDH6-EC5 deletion cells
Text: as §1, §2

Binder | Max MFI [MFI] | binding result
B1 | 1530 | 
B2 | 14300 | 
B3 | 4240 | 
B4 | 4040 | 
B5 | 1020 | 
B6 | 4490 | 
B7 | 6540 | 
B8 | 5610 | 
B9 |  | no binding (tested: MFI ~1.5 times that of hIgG1 (81))
